Here are results for 2 substances from article PMC9778525.

Assay [1] concerns the target N-terminus His-tagged annexin V (human) (UniProt P08758). Description: high-speed atomic force microscopy (HS-AFM); 1 uM annexin V added to supported lipid bilayers (DOPC:DOPS:biotinyl-DOPE = 7:2:1) on mica; 10 mM HEPES-NaOH pH 7.0, 2 mM CaCl2, 150 mM NaCl; trimers and 2D crystal lattice (p6) on the membrane.
Assay [2] concerns the target annexin V without any residual amino acids (human) (UniProt P08758). Described as above.

The substance “N-terminus His-tagged annexin V (from UniProt P08758 1-320) (natural protein)” showed a stoichiometry N in assay [1] of 3.
For “annexin V without any residual amino acids (from UniProt P08758 1-320) (natural protein)”, in assay [2], the stoichiometry N is 3.
